# Laboratory results reported in patent US20140179896A1 (published 2014).
# Residue numbers refer to the chain shown, from its start.
# B1: M5FL C100 (designed binder)
# chain: MGVSDVPRDLEVVAATPTSLLISWRHPHFPTRYYRITYGETGGNSPVQEFTVPLQPPLATISGLKPGVDYTITVYAVTKERNGRELFTPISINYRTEIDKPCQHHHHHH
# notes: unmodified M5FL with C-terminal extension, Cys100 and His tag; a significant percentage is produced with the initial methionine removed; also called C100-form of the M5FL protein
# B2: M5FL-PEG40 (designed binder)
# chain: B1 chain
# modifications: branched 40 kD PEG coupled by maleimide chemistry to the cysteine residue at position 100
# notes: also called M5FL 40K PEG
# B3: M5FL-PEG20 (designed binder)
# chain: B1 chain
# modifications: linear 20 kD PEG coupled by maleimide chemistry to the cysteine residue at position 100
# notes: also called M5FL 20K PEG
# B4: E29 (designed binder)
# chain: EVVAATPTSLLISWRHPHFPTRYYRITYGETGGNSPVQEFTVPLQPPTATISGLKPGVDYTITGYAVTVERNGRVLMTPISINYRT
# notes: 10Fn3 clone, Del 1-8
# B5: K6 (designed binder)
# chain: B4 chain with V69D, E70G, R71K, N72D, M77L
# notes: tag left out
# B6: K13 (designed binder)
# chain: B4 chain with V69L, E70A, R71L, N72K, R74H, V75E, M77L
# notes: tag left out
# B7: K10 (designed binder)
# chain: B4 chain with V69T, E70G, R71P, G73D, V75L, M77F, T78V
# notes: tag left out
# B8: K14 (designed binder)
# chain: B4 chain with V69R, R71E, G73D, R74H, V75E, M77L, T78I
# notes: tag left out
# B9: K9 (designed binder)
# chain: B4 chain with V69F, E70G, R71L, N72Y, R74K, V75E, M77L, T78I
# notes: tag left out
# B10: K12 (designed binder)
# chain: B4 chain with V69D, E70V, R71Y, G73D, R74H, V75E, L76I, M77K
# notes: tag left out
# B11: K15 (designed binder)
# chain: B4 chain with V69E, E70V, R71H, N72H, G73D, V75E, L76I, M77K
# notes: tag left out
# B12: K1 (designed binder)
# chain: B4 chain with V69M, E70G, R71L, N72Y, R74H, V75E, M77L
# notes: tag left out
# B13: M3 (designed binder)
# chain: VSDVPRDLEVVAATPTSLLISWRHPHFPTRYYRITYGETGGNSPVQEFTVPLQPPAATISGLKPGVDYTITGYAVTKERNGRELFTPISINYRT
# notes: 10Fn3 clone with WT N-terminus; Tags not included
# B14: M1 (designed binder)
# chain: B13 chain with P55T, A56V, K77L, G81D
# notes: as for B13
# B15: M2 (designed binder)
# chain: B13 chain with K77W
# notes: as for B13
# B16: M7 (designed binder)
# chain: B13 chain with P55T, A56T, K77W
# notes: as for B13
# B17: M6 (designed binder)
# chain: B13 chain with R30H, K77L, N80D
# notes: as for B13
# B18: M4 (designed binder)
# chain: B13 chain with R30H, K77T, N80T
# notes: as for B13
# B19: M8 (designed binder)
# chain: B13 chain with R30H, N80S
# notes: as for B13
# B20: E26 (designed binder)
# chain: B4 chain with V75E
# notes: Del 1-8 10Fn3 clone; Tags not included
# B21: E29 (designed binder)
# chain: B4 chain
# notes: as for B20
# B22: E19 (designed binder)
# chain: B4 chain with V75H
# notes: as for B20
# B23: E3 (designed binder)
# chain: B4 chain with V69D, E70G, G73D, V75K, T78V
# notes: Del 1-8 10Fn3 clone; Flag tag of the radioactive-assay form not included
# B24: E28 (designed binder)
# chain: B4 chain with V69L, V75E, T78V
# notes: as for B23
# B25: E25 (designed binder)
# chain: B4 chain with V69L, V75E
# notes: as for B23
# B26: E5 (designed binder)
# chain: B4 chain with V69D, E70G, R71Q, V75L, M77N, T78V
# notes: as for B23
# B27: E9 (designed binder)
# chain: B4 chain with V69E, V75T, M77R
# notes: as for B23
# B28: E18 (designed binder)
# chain: B4 chain with V75E, M77N
# Molecular target: T1, mouse vascular endothelial growth factor receptor-2 Fc chimera (Flk-1-Fc) (mouse, UniProt P35918 20-762)
# T1 construct: purchased from R&D Systems; also called mouse VEGF-R2-Fc; not shown: Fc part of the purchased chimera
# Assay: SPR (BIAcore), target immobilized
# Protocol: (§1) In vitro affinity measurements were made using surface plasmon resonance (SPR) (BIAcore) with both the human and mouse VEGF-receptor target proteins immobilized via amide chemistry on the BIAcore chip.
# (§2) The binding kinetics of fibronectin-based scaffold proteins binding proteins to the target was measured using BIAcore 2000 biosensor (Pharmacia Biosensor). Human and mouse VEGF-R2-Fc fusions were immobilized onto a CM5 sensor chip and soluble binding proteins were injected at concentrations ranging from 0 to 100 nM in buffer 0 (10 mM HEPES, 150 mM NaCl, 0.005% Tween 20, pH 7.4). Sensorgrams were obtained at each concentration and were evaluated using a program, BIA Evaluation 2.0 (BIAcore), to determine the rate constants kₐ (kₒₙ) and kd (koff.) The affinity constant, KD was calculated from the ratio of rate constants […].
Kd,koff,kon,Binder
2.1 nM,0.0003 s⁻¹,146000 M⁻¹ s⁻¹,B1
57.1 nM,0.00054 s⁻¹,10000 M⁻¹ s⁻¹,B2
22.8 nM,0.00055 s⁻¹,24000 M⁻¹ s⁻¹,B3

# Molecular target: T2, human vascular endothelial growth factor receptor-2 Fc chimera (KDR-Fc) (human, UniProt P35968 20-764)
# T2 construct: range 1-764; purchased from R&D Systems; also called hKDR; human VEGF-R2-Fc; not shown: human IgG1 Fc
# Assay: SPR (BIAcore), target immobilized
# Protocol: as §1, §2
# T2 sequence (P35968 20-764 limits assumed, change not shown, form in doubt): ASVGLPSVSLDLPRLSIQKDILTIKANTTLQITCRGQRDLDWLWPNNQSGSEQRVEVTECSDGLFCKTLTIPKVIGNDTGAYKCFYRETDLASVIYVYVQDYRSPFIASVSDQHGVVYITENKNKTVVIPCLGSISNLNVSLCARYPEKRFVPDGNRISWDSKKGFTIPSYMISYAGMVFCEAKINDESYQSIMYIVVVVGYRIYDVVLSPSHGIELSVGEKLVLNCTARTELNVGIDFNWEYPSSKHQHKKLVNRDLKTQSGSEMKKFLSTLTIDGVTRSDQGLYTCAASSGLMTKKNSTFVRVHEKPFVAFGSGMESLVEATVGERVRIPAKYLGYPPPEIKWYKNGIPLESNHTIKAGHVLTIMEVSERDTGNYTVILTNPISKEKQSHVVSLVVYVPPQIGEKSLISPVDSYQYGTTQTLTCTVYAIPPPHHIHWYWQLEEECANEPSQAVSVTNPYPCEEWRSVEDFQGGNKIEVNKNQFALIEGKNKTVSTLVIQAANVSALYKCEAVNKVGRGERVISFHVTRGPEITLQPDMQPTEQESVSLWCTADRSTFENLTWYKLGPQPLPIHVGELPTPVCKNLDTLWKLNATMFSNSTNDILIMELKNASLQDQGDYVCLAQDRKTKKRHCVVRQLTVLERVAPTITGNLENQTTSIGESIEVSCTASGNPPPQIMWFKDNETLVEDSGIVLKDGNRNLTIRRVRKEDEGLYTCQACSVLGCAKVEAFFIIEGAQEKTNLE
Kd,koff,kon,Binder
0.9 nM,6.7e-05 s⁻¹,74000 M⁻¹ s⁻¹,B1
5.9 nM,5.4e-05 s⁻¹,9000 M⁻¹ s⁻¹,B3

# Molecular target: T3, human vascular endothelial growth factor receptor-2 Fc chimera (KDR-Fc) (human, UniProt P35968 20-764)
# T3 construct: range 1-764; also called human VEGFR-2; not shown: human IgG1 Fc
# Assay: radioactive equilibrium binding assay, KDR-Fc
# Protocol: (§3) To prepare ³⁵S-labeled binding proteins for analysis, mRNA was prepared as described above for RNA-protein fusion production but the linker ligation step was omitted. The mRNA was expressed using rabbit reticulocyte lysate translation kit (Ambion) in the presence of ³⁵S-labeled Met at 30° C. for 1 hour. Expressed protein was purified on M2-agarose Flag beads (Sigma) as described above. This procedure produced the encoded protein without the nucleic acid tail. In a direct binding assay, VEGF-R2-Fc fusions in concentrations ranging from 0 to 200 nM were added to a constant concentration of the purified protein (0.2 or 0.5 nM) and incubated at 30° C. for 1 hour in buffer B. The receptor-binder complexes were captured using Protein A magnetic beads for another 10 minutes at room temperature using a Kingfisher™ The beads were washed with six reaction volumes of buffer B. The protein was eluted from the beads with 100 μL of 0.1 M KOH. […] of the reaction mixture and elution were dried onto a LumaPlate-96 (Packard) and the amount of ³⁵S on the plate was measured using a TopCount NXT instrument (Packard). The amount of fibronectin-based scaffold protein bound to the target was estimated as a percent of radioactivity eluted from Protein A magnetic beads compare to radioactivity in the reaction mixture. Nonspecific binding of fibronectin-based scaffold proteins to the beads was determined by measuring binding in the absence of KDR-Fc and represented less than 1-2% of the input. Specific binding was obtained through subtraction of nonspecific binding from total binding. Data was analyzed using the GraphPad Prizm software (GraphPad Software, Inc, San Diego, Calif.), fitted using a one site, non-linear binding equation.
# T3 sequence (P35968 20-764 limits assumed, change not shown, form in doubt): as above
row,Kd,Binder
1,1.51 nM,B4

# Molecular target: T2, human vascular endothelial growth …
# Assay: radioactive equilibrium binding assay, KDR-Fc
# Protocol: as §3
row,Kd,Binder
1,< 0.9 nM,B5
2,< 0.6 nM,B6
3,< 0.6 nM,B7
4,< 0.6 nM,B8
5,< 1.8 nM,B9
6,< 0.6 nM,B10
7,< 0.4 nM,B11
8,< 0.6 nM,B12

# Molecular target: T4, mouse vascular endothelial growth factor receptor-2 Fc chimera (Flk-1-Fc) (mouse, UniProt P35918 20-762)
# T4 construct: Purchased from R&D Systems; also called mouse VEGF-R2; not shown: Fc part of the purchased chimera
# Assay: clones from the 159Q(8)L library; binding per FIG. 4
# Protocol: as §3
# T4 sequence (P35918 20-762, change not shown): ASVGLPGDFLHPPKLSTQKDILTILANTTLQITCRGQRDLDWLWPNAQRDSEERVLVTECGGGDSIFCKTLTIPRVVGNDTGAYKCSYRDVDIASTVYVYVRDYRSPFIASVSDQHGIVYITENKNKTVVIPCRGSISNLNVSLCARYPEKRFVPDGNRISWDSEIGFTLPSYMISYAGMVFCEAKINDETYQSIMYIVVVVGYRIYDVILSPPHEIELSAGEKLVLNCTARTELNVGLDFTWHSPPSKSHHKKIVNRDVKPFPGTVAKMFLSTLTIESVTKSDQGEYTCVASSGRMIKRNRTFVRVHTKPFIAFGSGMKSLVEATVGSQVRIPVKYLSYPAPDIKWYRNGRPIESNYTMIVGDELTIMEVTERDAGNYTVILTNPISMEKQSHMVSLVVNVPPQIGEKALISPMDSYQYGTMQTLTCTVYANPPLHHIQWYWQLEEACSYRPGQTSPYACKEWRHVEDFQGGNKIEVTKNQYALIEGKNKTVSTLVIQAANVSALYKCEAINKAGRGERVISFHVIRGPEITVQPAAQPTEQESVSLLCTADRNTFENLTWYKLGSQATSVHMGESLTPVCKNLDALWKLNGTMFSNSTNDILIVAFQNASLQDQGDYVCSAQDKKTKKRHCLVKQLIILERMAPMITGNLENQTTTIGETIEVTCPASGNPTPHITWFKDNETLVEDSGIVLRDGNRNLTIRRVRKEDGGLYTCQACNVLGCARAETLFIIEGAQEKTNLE
row,binding result,Binder
1,binds,B13
2,binds,B14
3,binds,B15
4,binds,B16
5,binds,B17
6,binds,B18
7,binds,B19

# Molecular target: T5, human vascular endothelial growth factor receptor-2 Fc chimera (KDR-Fc) (human, UniProt P35968 20-764)
# T5 construct: range 1-764; also called human VEGFR-2; hKDR; not shown: human IgG1 Fc
# Assay: binding to 1 nM KDR-Fc, % of input; radioactive equilibrium binding (assay not given)
# Protocol: as §3
# T5 sequence (P35968 20-764 limits assumed, change not shown, form in doubt): as the sequence (P35968 20-764 limits assumed, change not shown, form in doubt) above
row,"Binding to 1 nM KDR, %",Binder
1,27%,B20
2,41%,B21
3,38%,B22
4,37%,B23
5,19%,B24
6,41%,B25
7,26%,B26
8,24%,B27

# Molecular target: T4, mouse vascular endothelial growth …
# Assay: binding to 1 nM Flk-1-Fc, % of input; radioactive equilibrium binding (assay not given)
# Protocol: as §3
row,"Binding to 1 nM FLK, %",Binder
1,20%,B20
2,44%,B21
3,40%,B22
4,14%,B23
5,21%,B24
6,28%,B25
7,10%,B26
8,34%,B27

# Molecular target: T4, mouse vascular endothelial growth …
# Assay: radioactive equilibrium binding (assay not given)
# Protocol: as §3
row,Kd,Binder
1,2.05 nM,B20
2,0.91 nM,B21
3,0.66 nM,B22
4,5.4 nM,B23
5,2.1 nM,B24
6,1.3 nM,B25
7,3.2 nM,B26
8,1.4 nM,B27

# Molecular target: T5, human vascular endothelial growth …
# Assay: radioactive equilibrium binding (assay not given)
# Protocol: as §3
row,Kd,Binder
1,1.66 nM,B20
2,1.51 nM,B21
3,1.3 nM,B22
4,0.96 nM,B23
5,1.63 nM,B24
6,1.58 nM,B25
7,0.4 nM,B26
8,2.37 nM,B27

# Molecular target: full-length human KDR on cells (human, UniProt P35968 20-1356)
# Sequence (P35968 20-1356): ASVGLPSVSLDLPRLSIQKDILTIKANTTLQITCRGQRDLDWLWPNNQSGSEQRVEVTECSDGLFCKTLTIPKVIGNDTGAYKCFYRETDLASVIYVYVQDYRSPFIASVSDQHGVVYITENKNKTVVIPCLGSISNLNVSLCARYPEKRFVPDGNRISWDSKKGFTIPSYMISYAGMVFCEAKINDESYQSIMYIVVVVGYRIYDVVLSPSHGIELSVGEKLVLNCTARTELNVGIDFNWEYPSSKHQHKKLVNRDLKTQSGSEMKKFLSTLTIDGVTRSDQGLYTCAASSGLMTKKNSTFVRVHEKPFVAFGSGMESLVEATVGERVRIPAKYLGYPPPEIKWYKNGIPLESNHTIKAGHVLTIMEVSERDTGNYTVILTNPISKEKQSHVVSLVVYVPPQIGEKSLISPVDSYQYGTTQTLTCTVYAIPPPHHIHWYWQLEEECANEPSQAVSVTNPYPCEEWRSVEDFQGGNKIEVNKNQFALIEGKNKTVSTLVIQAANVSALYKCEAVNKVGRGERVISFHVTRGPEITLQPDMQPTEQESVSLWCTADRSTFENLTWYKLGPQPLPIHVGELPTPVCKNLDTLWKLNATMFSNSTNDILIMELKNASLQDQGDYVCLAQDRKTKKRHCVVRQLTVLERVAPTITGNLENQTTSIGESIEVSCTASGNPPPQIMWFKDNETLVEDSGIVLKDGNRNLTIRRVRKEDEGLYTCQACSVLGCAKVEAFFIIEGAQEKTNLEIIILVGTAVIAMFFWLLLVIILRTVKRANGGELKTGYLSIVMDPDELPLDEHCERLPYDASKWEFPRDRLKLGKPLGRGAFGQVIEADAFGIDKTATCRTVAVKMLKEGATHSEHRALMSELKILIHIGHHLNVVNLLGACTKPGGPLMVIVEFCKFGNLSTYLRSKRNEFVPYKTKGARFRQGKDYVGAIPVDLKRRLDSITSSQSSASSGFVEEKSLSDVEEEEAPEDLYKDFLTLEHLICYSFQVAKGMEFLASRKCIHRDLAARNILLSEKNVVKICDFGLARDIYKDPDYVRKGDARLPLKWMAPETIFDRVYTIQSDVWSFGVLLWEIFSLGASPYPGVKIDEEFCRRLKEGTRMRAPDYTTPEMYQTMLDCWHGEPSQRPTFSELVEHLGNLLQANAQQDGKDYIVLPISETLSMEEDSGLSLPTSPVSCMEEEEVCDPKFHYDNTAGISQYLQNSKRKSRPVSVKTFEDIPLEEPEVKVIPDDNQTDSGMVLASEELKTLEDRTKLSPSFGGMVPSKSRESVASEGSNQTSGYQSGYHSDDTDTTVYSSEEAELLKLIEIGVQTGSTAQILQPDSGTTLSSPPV
# Assay: cell-based or functional assay
row,HUVEC proliferation assay: decrease in proliferation,Binder
1,~40%,B20
2,~40%,B21
3,~40%,B22
4,~40%,B28

# Molecular target: T3, human vascular endothelial growth …
# Assay: radioactive equilibrium binding assay, 1 nM KDR-Fc, % of input bound
# Outline: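 Read-out: eluted ³⁵S as % of input radioactivity, minus bead-only binding without KDR-Fc (under 1-2% of input); one-site non-linear fit. Tracer binder 0.2 or 0.5 nM, receptor-Fc 0–200 nM, 1 h at 30° C in buffer B.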
row,"Binding to 1 nM KDR, %",Binder
1,41%,B4

# Molecular target: T6, mouse vascular endothelial growth factor receptor-2 Fc chimera (Flk-1-Fc) (mouse, UniProt P35918 20-762)
# T6 construct: Bought from R&D Systems; also called mouse VEGFR-2; not shown: Fc part of the purchased chimera, not specified
# Assay: radioactive equilibrium binding assay, Flk-1-Fc
# Protocol: as §3
# T6 sequence (P35918 20-762, change not shown): as the sequence (P35918 20-762, change not shown) above
row,Kd,Binder
1,0.91 nM,B4

# Molecular target: T6, mouse vascular endothelial growth …
# Assay: radioactive equilibrium binding assay, 1 nM Flk-1-Fc, % of input bound
# Outline: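 ³⁵S-Met-labeled fibronectin-scaffold binders, made by reticulocyte lysate translation (30° C, 1 h) and Flag-purified, were held at 0.2 or 0.5 nM and incubated with 0–200 nM VEGF-R2-Fc for 1 h at 30° C in buffer B. Complexes were captured on Protein A magnetic beads, washed, KOH-eluted and counted.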
row,"Binding to 1 nM Flk-1, %",Binder
1,44%,B4
